Test results published in patent WO2001094586A2 (dated 2001).
Substitutions are numbered along the chain they refer to.

T1: human gp39 (CD40 ligand), cell-surface (human, UniProt P29965 1-261)
T1 construct: whole, on cells; also called CD154; mgp39
T1 sequence (looked up): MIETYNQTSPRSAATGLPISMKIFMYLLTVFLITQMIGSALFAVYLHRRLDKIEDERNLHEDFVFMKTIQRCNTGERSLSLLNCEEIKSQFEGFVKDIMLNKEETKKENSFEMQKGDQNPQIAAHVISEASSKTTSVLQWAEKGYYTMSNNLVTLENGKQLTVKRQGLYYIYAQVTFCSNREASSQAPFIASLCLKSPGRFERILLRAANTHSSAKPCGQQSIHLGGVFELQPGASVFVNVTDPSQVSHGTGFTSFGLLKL

B1: humanized 24-31 antibody, version 1 (#1 VL with #1 VH) (antibody, V domains shown)
VH: EVQLQESGPGLVKPSETLSLTCTVSGDSITNGFWIWIRKPPGNKLEYMGYISYSGSTYYNPSLKSRISISRDTSKNQFSLKLSSVTAADTGVYYCACRSYGRTPYYFDFWGQGTTLTVSS
VL: DIVMTQSPSFLSASVGDRVTITCKASQNVITAVAWYQQKPGKSPKLLIYSASNRYTGVPDRFSGSGSGTDFTLTISSLQPEDFADYFCQQYNSYPYTFGGGTKLEIK
notes: also called IDEC131
B2: humanized 24-31 antibody, version 2 (#2 VL with #1 VH) (antibody, V domains shown)
VH: B1 VH
VL: DIVMTQSPDSLAVSLGERATINCKASQNVITAVAWYQQKPGQSPKLLIYSASNRYTGVPDRFSGSGSGTDFTLTISSLQAEDVADYFCQQYNSYPYTFGGGTKLEIK
notes: Built in the N5KG1 vector (human kappa and gamma 1 constant regions); also called humanized 24-31 version 2; humanized Version 2
B3: murine antibody 24-31 (anti-human gp39 monoclonal antibody) (antibody, V domains shown)
VH: EVQLQESGPSLVKPSQTLSLTCSVTGDSITNGFWIWIRKFPGNKLEYMGYISYSGSTYYNPSLKSRISITRDTSQNQFYLQLNSVTTEDTGTYYCACRSYGRTPYYFDFWGQGTTLTVSS
VL: B1 VL with P8Q, S9K, L11M, A13T, T20S, K42Q, S77N, L78M, P80S, F83L
notes: also called murine 24-31; anti-gp39 24-31 mAb

Tests used:
[1] = molecular target: T1, human gp39 (CD40 ligand), cell-surface; assay: cell-based or functional assay
[2] = molecular target: soluble fusion protein of human gp39 (gp39-CD8) (human) (UniProt P29965); assay: cell-based or functional assay
[3] = molecular target: T1, human gp39 (CD40 ligand), cell-surface; assay: Scatchard analysis, 125I-labelled antibody on gp39-CHO cells

Row | Molecule | IL-2 production with immobilized anti-CD3 (10 ng/mL) [1] | IL-2 production with TRAP-1 (30 ng/mL) and a 4:1 molar excess of soluble CD8-CD40L fusion protein [2] | Kd [3]
1 | TRAP-1, commercial murine anti-CD40L antibody | > 4600 pg/mL | 1500 pg/mL | 
2 | B1 |  |  | 5.6 nM
3 | B2 |  |  | 14 nM
4 | B3 |  |  | 8.51 nM
